# Where a chain is given by its changes, count along the chain named.
# T1: human MCP-2 (human), P80075
# T1 chain: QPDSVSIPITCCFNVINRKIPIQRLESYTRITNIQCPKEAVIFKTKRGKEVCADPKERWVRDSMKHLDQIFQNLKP
# B1: MOR03754 Fab (Fab)
# chain 1: QVQLVESGGGLVQPGGSLRLSCAASGFTFRSYGMSWVRQAPGKGLEWVSSIEHKWSGYATTYAASVKGRFTISRDNSKNTLYLQMNSLRAEDTAVYYCARFEFTPWTYFDFWGQGTLVTVSS
# chain 2: DIELTQPPSVSVAPGQTARISCSGDNLGKKYVYWYQQKPGQAPVLVIYDDDNRPSGIPERFSGSNSGNTATLTISGTQAEDEADYYCQSYTAQSSASFGGGTKLTVL
# modifications: not checked
# B2: MOR03850 IgG1 (antibody)
# chain 1: QVELVQSGAEVKKPGSSVKVSCKASGGTFSSYGISWVRQAPGQGLEWMGAINPLAGHTHYAQKFQGRVTITADESTSTAYMELSSLRSEDTAVYYCARYDGIYGELDFWGQGTLVTVSS
# chain 2: not shown
# modifications: not checked
# B3: MOR03781 IgG1 (antibody, V domains shown)
# VH: B2 chain 1 with A50G, N52I, L54I, A55F, H57T, T58A, H59N
# VL: not shown
# B4: MOR03790 IgG1 (antibody, V domains shown)
# VH: B2 chain 1 with A50G, N52I, L54I, A55F, H57T, T58A, H59N
# VL: not shown
# B5: MOR03790 Fab (Fab, V domains shown)
# VH: B2 chain 1 with A50G, N52I, L54I, A55F, H57T, T58A, H59N
# VL: not shown
# B6: MOR03781 Fab (Fab, V domains shown)
# VH: B2 chain 1 with A50G, N52I, L54I, A55F, H57T, T58A, H59N
# VL: not shown
# B7: MOR03850 Fab (Fab, V domains shown)
# VH: B2 chain 1
# VL: not shown
# Biological target: T1, human MCP-2 (human), P80075
# Assay: 125I-MCP-2 binding to CCR2 on THP-1 cells, radio-ligand competition
row,IC50 [nM],Binder
1,> 2000,B1

# Biological target: cynomolgus monkey MCP-1 (cynomolgus monkey), P61274
# Assay: SET, BioVeris, cyno MCP-1
# Chain of cynomolgus monkey MCP-1 (cynomolgus monkey), P61274 (P61274 24-99 limits assumed): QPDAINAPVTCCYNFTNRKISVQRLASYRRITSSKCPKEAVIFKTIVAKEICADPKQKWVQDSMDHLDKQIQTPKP
row,Kd [nM],Binder
1,0.01,B2

# Biological target: T2, human monocyte chemoattractant protein-1 (MCP-1) (human), P13500
# Assay: SET, BioVeris, IgG1, rh MCP-1
# T2 sequence (P13500 other isoform, or with tags, fused parts or gaps, form in doubt): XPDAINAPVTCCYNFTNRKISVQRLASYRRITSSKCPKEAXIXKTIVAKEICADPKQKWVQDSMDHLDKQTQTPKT
row,Kd [nM],Binder
1,0.02,B3
2,0.07,B4
3,0.011,B2

# Biological target: T2, human monocyte chemoattractant …
# Assay: 125I-MCP-1 binding to THP-1 cells, radio-ligand competition
row,IC50 [nM],Binder
1,0.26,B5
2,0.18,B6
3,0.02,B3
4,0.03,B4
5,0.05,B2
6,0.16,B7

# Biological target: cynomolgus monkey MCP-1 (cynomolgus monkey), P61274
# Assay: SET, BioVeris, IgG1, cyno MCP-1
row,Kd [nM],Binder
1,0.021,B2

# Biological target: T2, human monocyte chemoattractant …
# Assay: SET, BioVeris, Fab, rh MCP-1
row,Kd [nM],Binder
1,0.12,B5
2,0.03,B6
3,0.04,B7

# Biological target: T2, human monocyte chemoattractant …
# Assay: cell-based or functional assay
row,Inhibition of Ca2+ Mobilization IC50 [nM],Binder
1,25,B5
2,21.8,B6
3,10.9,B3
4,4.26,B4
5,9.47,B2
6,28.4,B7

# Biological target: T2, human monocyte chemoattractant …
# Assay: SET, IGEN (BioVeris)
row,Kd [nM],Binder
1,0.12,B5
2,0.03,B6
3,0.02,B3
4,0.07,B4
5,0.01,B2
6,0.04,B7
